Test [1] concerns the target T1, β-actin (UniProt P60709 2-375).
T1 construct: also called beta-actin
As to the kind of experiment: anti-FLAG affinity purification from Ad-Apwt-infected H1299 cells, SDS-PAGE, MALDI-TOF.

Test [2] deals with T2, anaphase promoting complex subunit 1 (APC1) (Homo sapiens, UniProt Q9H1A4 1-1944).
T2 construct: Endogenous protein in lysates of H1299 (or PFF) cells, detected with a polyclonal anti-APC1 antibody or by MALDI-TOF; also called Cyclosome subunit 1; Protein TSG24
T2 sequence (Q9H1A4 whole entry, one chain of several): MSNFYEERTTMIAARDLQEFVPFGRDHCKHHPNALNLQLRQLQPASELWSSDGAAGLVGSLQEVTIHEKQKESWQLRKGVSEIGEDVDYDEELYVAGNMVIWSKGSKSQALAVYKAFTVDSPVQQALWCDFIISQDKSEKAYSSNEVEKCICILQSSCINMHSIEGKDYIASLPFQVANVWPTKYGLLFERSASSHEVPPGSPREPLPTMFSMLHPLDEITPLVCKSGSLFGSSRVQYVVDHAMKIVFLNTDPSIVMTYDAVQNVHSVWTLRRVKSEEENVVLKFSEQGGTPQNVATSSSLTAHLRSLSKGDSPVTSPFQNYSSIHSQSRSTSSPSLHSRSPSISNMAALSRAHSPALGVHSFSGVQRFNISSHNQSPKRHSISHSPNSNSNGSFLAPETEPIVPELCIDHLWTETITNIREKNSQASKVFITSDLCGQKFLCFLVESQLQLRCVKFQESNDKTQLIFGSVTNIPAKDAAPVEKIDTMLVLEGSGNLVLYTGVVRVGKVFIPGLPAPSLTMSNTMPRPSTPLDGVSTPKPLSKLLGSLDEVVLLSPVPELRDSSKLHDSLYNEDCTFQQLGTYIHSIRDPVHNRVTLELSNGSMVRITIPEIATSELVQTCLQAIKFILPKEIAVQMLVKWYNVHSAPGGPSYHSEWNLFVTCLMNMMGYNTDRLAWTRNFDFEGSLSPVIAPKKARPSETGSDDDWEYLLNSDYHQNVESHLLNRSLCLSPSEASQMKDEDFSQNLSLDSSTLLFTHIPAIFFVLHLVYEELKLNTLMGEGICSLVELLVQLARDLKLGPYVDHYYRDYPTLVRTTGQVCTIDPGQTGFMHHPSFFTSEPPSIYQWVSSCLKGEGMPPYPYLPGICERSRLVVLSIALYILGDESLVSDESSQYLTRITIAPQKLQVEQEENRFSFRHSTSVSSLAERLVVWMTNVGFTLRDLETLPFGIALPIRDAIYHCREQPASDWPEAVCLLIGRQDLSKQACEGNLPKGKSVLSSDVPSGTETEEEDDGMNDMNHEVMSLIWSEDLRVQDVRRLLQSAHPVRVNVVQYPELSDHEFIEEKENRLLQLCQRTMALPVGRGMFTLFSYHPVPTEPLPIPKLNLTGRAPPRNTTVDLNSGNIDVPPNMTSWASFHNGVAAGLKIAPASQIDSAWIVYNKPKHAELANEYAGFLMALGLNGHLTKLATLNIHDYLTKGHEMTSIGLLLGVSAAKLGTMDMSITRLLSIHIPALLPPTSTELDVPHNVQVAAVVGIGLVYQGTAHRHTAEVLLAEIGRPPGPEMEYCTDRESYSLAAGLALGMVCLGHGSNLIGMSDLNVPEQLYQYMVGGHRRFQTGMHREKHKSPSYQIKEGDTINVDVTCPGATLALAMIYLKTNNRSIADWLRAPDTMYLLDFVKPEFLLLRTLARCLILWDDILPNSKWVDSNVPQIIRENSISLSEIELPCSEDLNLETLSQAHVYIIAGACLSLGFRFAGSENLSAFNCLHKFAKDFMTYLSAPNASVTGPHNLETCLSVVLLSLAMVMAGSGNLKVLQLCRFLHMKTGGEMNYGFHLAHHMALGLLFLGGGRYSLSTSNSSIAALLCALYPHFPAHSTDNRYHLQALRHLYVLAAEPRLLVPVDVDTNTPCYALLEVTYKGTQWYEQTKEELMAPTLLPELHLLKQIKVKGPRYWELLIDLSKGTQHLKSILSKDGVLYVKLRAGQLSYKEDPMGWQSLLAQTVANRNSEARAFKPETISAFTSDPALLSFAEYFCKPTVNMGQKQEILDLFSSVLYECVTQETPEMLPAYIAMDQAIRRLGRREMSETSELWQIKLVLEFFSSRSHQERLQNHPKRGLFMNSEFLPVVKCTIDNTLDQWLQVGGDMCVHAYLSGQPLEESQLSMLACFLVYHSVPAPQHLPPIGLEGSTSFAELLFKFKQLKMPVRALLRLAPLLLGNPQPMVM
Kind of test: anti-FLAG immunoprecipitation from H1299 cells, APC1 immunoblot. For orientation: In western blotting, separated proteins are transferred to a membrane and probed.

Where a chain is given by its changes, count along the chain named.

B1: FLAG-tagged wild type Apoptin expressed from adenovirus Ad-Apwt (other)
chain: MNALQEDTPPGPSTVFRPPTSSRPLETPHCREIRIGIAGITITLSLCGCANARAPTLRSATADNSESTGFKNVPDLRTDQPKPPSKKRSCDPSEYRVSELKESLITTTPSRPRTAKRRIRL
notes: Expressed in infected H1299 or PFF cells and pulled down from lysates on anti-FLAG beads; also called FLAG-Apoptin; FLAG-tagged Apoptin
In the case of B1, the binding result in test [1] was “binds”.

B2: triple FLAG-tagged Ap-pmNLS2 (other)
chain: B1 chain with K116A, R117A, R118A
notes: not shown: triple FLAG tag
As to B2, the binding result in test [2] is reported as “no binding”.

B3: triple FLAG-tagged Ap-SV40NLS (other)
chain: MNALQEDTPPGPSTVFRPPTSSRPLETPHCREIRIGIAGITITLSLCGCANARAPTLRSATADNSESTGFKNVPDLRTDQPKPPSKKRPKKKRKV
notes: The make-up (Apoptin 1-88 plus SV40 LT NLS) is described for the GFP construct; not shown: triple FLAG tag
In the case of B3, in test [2], the binding result is “no binding”.

Values taken from patent publication US20060057652A1 (UNIVERSITY OF MASSACHUSETTS, published 2006).
